Target: T1, CitERF16 (Citrus, UniProt V4VLW3 1-243)
T1 sequence: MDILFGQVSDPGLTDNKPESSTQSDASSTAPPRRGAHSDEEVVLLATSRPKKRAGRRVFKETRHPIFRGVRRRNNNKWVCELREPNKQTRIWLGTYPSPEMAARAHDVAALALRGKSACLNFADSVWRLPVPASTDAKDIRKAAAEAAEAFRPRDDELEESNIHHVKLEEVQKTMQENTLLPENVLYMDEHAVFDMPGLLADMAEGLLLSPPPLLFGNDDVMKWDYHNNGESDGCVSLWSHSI
Assay: EMSA; unlabelled same-sequence probe reduced binding; LightShift Chemiluminescent EMSA kit (Thermo), per manufacturer; buffer, salt, pH and temperature not stated
Conditions: protein: recombinant; tags: His (pET-32a vector fusion); label: 3'-biotin; blunt

B1: CitSWEET11d promoter probe (dsDNA)
DNA 1: AAACGATGTCGGTACTCGGTCCGCATGCAATCATACAAAACAACAAGAAT
DNA 2: ATTCTTGTTGTTTTGTATGATTGCATGCGGACCGAGTACCGACATCGTTT
- binding result: binds
